Measurements from US12246067.

What follows are binders tested against HLA-A02.01 (human) (assay: peptide-HLA class I affinity, method not described). Settings: remark: other sources report otherwise.

Row | Measured Affinity | Binder
1 | 682 nM | LVVVGAVGV [KRAS, G12V peptide …]
2 | 667 nM | LVVVGACGV [KRAS, G12C peptide …]
3 | 977 nM | LVVVGADGV [KRAS, G12D peptide …]

What follows are binders tested against HLA-A02.01 (human) (assay: peptide-HLA class I complex stability, method not described). Settings: remark: other sources report otherwise.

Row | Measured stability | Binder
4 | 0.6 h | LVVVGAVGV [KRAS, G12V peptide …]
5 | 0.6 h | LVVVGACGV [KRAS, G12C peptide …]
6 | 0 h | LVVVGADGV [KRAS, G12D peptide …]
